# In US7435574B2 (Degussa AG, priority 2001, dated 2008):
# Legend:
# [1] = biological target: NADH oxidase (NOX) from Lactobacillus brevis DSM 20054, wild type, SEQ ID NO:2 (Levilactobacillus brevis, UniProt Q03Q85); conditions: higher NADH concentrations (up to 0.5 mM); photometric
# [2] = NAD+ regeneration coupled with R-specific alcohol dehydrogenase recADHG37D, oxidation of (R,S)-phenylethanol, GC analysis; format: biochemical; conditions: 50 mM (R,S)-phenylethanol, 2 mM NADH, pH 7.0, 1 U recADHG37D and 2 U NADH oxidase, FIG. 4
# Description: This may be necessary for example if NAD-dependent dehydrogenases are used for the oxidation, as has been shown in a general way hereinbefore (reaction scheme 1).
# (R,S)-phenylethanol was used as alcohol, and the reaction was carried out as a batch reaction.
# As a control the same experiment was carried out, but without the addition of NADH oxidase.
# [3] = temperature stability of the NADH oxidase (storage at 30° C. and 42° C., residual activity); format: physicochemical
# Description: In order to determine the temperature stability enzyme samples were stored at 30° C. and 42° C., samples were taken at various times, and the residual activity was measured. […] At 42° C. the enzyme deactivates initially (up to ca. 120 minutes) relatively quickly, following which it appears to be stable at ca. 50% residual activity over a relatively long time (at least 16 hours).
# [4] = pH stability of the NADH oxidase (8 hours incubation in buffers, residual activity); format: physicochemical
# Description: The pH optimum was measured in the range pH 4.0 to 10.0. Different buffers were used depending on the pH value. As a check on the influence of the buffer, when changing the buffer this pH value was measured twice in the different buffers (pH 7.0 and pH 8.5). 0.1 M citric acid/Na2PO4 was used for the range pH 4.0-7.0, 0.1 M TEA was used for the range 7.0-8.5, and 0.1 M glycine/NaOH was used for the range pH 8.5-10.0.
# At pH 8.5 the enzyme is still up to 100% stable after 8 hours in TEA/NaOH buffer as well as in glycine/NaOH buffer. The figure illustrates that the enzyme stable in the slightly alkaline range (pH 8-9) is also stable in a wider range. This range is useful for application purposes if the NADH oxidase for the oxidation is to be coupled with an NAD-dependent dehydrogenase, since the pH optimum of many dehydrogenases for the oxidation lies in a slightly alkaline range.
# [5] = temperature optimum of the NADH oxidase; format: biochemical; conditions: FIG. 3
# [6] = substrate: NC(=O)C1=CN([C@@H]2O[C@H](COP(=O)(O)OP(=O)(O)OC[C@H]3O[C@@H](n4cnc5c(N)ncnc54)[C@H](O)[C@@H]3O)[C@@H](O)[C@H]2O)C=CC1; test: purified protein, by the assay type; conditions: other: NADH varied 0.0013 to 0.52 mM, photometric, 340 nm, 30° C., 100 mM potassium phosphate pH 7.5, 1 mM DTT (standard test), enzyme purified by 4 chromatographic steps
# [7] = determination of the KM value for NADH; format: biochemical
excess inhibition by NADH [1],"oxidation of the R-alcohol of (R,S)-phenylethanol in the coupled reaction [2]",temperature of maximum activity [5],excess (substrate) inhibition at higher NADH concentrations ([7]; NADH up to 0.5 mM),NADH concentration at which maximum activity is reached ([7]; NADH varied from 0.0013 to 0.52 mM),Molecule,time for which the enzyme is in practice stable ([3]; storage at 30° C.),"half-value time of deactivation ([3]; storage at 30° C., after ca. 400 minutes)","residual activity ([3]; storage at 42° C., after initial deactivation (up to ca. 120 minutes), stable for at least 16 hours)","first stability optimum (pH) ([4]; 8 hours incubation, FIG. 2)","second stability optimum (pH) ([4]; 8 hours incubation, FIG. 2)","stability in the range pH 5.5-7.5 ([4]; 8 hours incubation, pH 5.5-7.5)","stability (residual activity) after 8 hours at pH 8.5 ([4]; pH 8.5, TEA/NaOH buffer as well as glycine/NaOH buffer, 8 hours)",Km [6]
weak excess inhibition,,,,,NC(=O)C1=CN([C@@H]2O[C@H](COP(=O)(O)OP(=O)(O)OC[C@H]3O[C@@H](n4cnc5c(N)ncnc54)[C@H](O)[C@@H]3O)[C@@H](O)[C@H]2O)C=CC1 [NADH],,,,,,,,
,almost completely oxidised,40 °C,only a weak excess inhibition,0.1 mM,"NADH oxidase (NOX) from Lactobacillus brevis DSM 20054, wild type, SEQ ID NO:2 (Levilactobacillus brevis ATCC 367) (protein) MKVTVVGCTHAGTFAIKQILAEHPDAEVTVYERNDVISFLSCGIALYLGGKVADPQGLFYSSPEELQKLGANVQMNHNVLAIDPDQKTVTVEDLTSHAQTTESYDKLVMTSGSWPIVPKIPGIDSDRVKLCKNWAHAQALIEDAKEAKRITVIGAGYIGAELAEAYSTTGHDVTLIDAMDRVMPKYFDADFTDVIEQDYRDHGVQLALSETVESFTDSATGLTIKTDKNSYETDLAILCIGFRPNTDLLKGKVDMAPNGAIITDDYMRSSNPDIFAAGDSAAVHYNPTHQNAYIPLATNAVRQGILVGKNLVKPTVKYMGTQSSSGLALYDRTIVSTGLTLAAAKQQGVNAEQVIVEDNYRPEFMPSTEPVLMSLVFDPDTHRILGGALMSKYDVSQSANTLSVCIQNENTIDDLAMVDMLFQPNFDRPFNYLNILAQAAQAKVAQSVNA",ca. 400 minutes,ca. 18 hours,ca. 50%,5.0 pH,8.5 pH,moderately stable,up to 100%,24 µM
